Biological target: T1, Drosophila septin polypeptide Pnut (Drosophila (endogenous in embryos), UniProt P40797 1-539)
T1 sequence (looked up): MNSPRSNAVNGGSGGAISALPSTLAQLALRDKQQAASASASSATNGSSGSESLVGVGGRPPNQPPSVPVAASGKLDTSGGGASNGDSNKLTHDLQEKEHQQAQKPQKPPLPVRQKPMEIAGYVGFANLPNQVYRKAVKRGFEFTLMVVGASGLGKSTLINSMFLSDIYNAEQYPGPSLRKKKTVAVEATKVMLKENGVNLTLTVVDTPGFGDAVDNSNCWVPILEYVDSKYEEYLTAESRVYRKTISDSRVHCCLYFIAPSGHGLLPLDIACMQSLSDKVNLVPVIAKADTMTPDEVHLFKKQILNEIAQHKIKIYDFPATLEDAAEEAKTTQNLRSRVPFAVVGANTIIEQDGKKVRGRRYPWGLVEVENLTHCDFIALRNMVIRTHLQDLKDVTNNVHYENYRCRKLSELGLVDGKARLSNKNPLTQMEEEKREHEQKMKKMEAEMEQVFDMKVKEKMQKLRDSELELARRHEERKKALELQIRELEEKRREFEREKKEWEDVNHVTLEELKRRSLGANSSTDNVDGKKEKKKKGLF
Assay: co-IP

Binder	stoichiometry N
Drosophila septin polypeptide Sep2 (natural protein, Drosophila (endogenous in embryos), UniProt P54359 1-419, looked up) MSVEVDFVDKKEVHLRTLKQSGHVGFDSLPDQLVNKSVQNGFVFNVMCIGETGLGKSTLMDTLFNTSFESTPSPHTLPSVKLKAHTYELQESNVRLKLTICDTVGYGDQINKDDSFKAVVDYIDAQFENYLQEELKIKRSLVTCHDSRIHICLYFICPTGHGLKSLDLVCMKKLDSKVNIIPVIAKADTISKVELQRFKAKIIQELNANGVHIYQFPTDDETVAETNTSMNSHIPFAVVGSTEFIKVGNKLIRARQYPWGTVQVENETHCDFVKLREMLIRTNMEDMREKTHTRHYELYRQKRLEQMGFSDVDSDNKPISFQQTFEAKRSNHLAELQSKEEEVRQMFVQRVKEKEAELKESEKDLHAKFEKLKRDHAEEKRKLEESRKALEEDYLDFQRRKQQLATAHHTLTLGKSKKK	~1
Drosophila septin polypeptide Sep1 (natural protein, Drosophila (endogenous in embryos), UniProt P42207 1-361, looked up) MADTKGFSSIETPGYVGFANLPNQVHRKSVKKGFEFTLMVVGESGLGKSTLVNSLFLTDLYPERIIPDAIEKQKQTVKLEASTVEIEERGVKLRLTVVDTPGFGDAIDNSNSFGAILEYIDEQYERFLRDESGLNRRNIVDNRIHCCFYFISPFGHGLKPLDVEFMKKLHSKVNIVPVIAKADCLTKKEILRLKCRIMQEIESHGIKIYPLPDCDSDEDEDYKEQVKQLKEAVPFAVCGANTLLEVKGKKVRGRLYPWGVVEVENPDHCDFIKLRTMLITHMQDLQEVTQEVHYENYRSDRLAKGIKGKENGVKAERDSSSQVVSNSVLGEKDRILQEKEAELRRMQEMLAQMQARMQAQQ	~1
